Results from publication PMC11711466.

What was measured:
[1] = target: budding yeast MCM2-7 complex (budding yeast) (UniProt P29469); experiment: negative-stain EM (2D class averages); eluates of pre-RC reactions with ATP washed with 300 mM NaCl (high salt); complexes on DNA
[2] = target: hORC1-5;hCDC6;hCDT1deltaN;hMCM2-7 (human;human;human;human) (UniProt Q13415+Q13416+Q9UBD5+O43929+O43913+Q99741+Q9H211+P49736+P25205+P33991+P33992+Q14566+P33993); experiment: bead pull-down (pre-RC assay); conditions: ATP, high-salt wash, no hORC6; CDT1 form inferred; 25 mM HEPES-KOH pH 7.5, 250 mM KGlu, 1 mM DTT, 4 mM MgOAc, 0.1% Triton X-100, 1 mM ATP or ATPgS, 30 C; high-salt wash adds 300 mM NaCl; in-solution: …; scale: fold reduction of hMCM2-7 signal vs with hORC6
[3] = target: hORC1-5;hORC6;hCDC6;hCDT1deltaN;hMCM2-7 (human;human;human;human;human) (UniProt Q13415+Q13416+Q9UBD5+O43929+O43913+Q9Y5N6+Q99741+Q9H211+P49736+P25205+P33991+P33992+Q14566+P33993); experiment: bead pull-down (pre-RC assay); conditions: ATP, high-salt wash; CDT1 form inferred; 25 mM HEPES-KOH pH 7.5, 250 mM KGlu, 1 mM DTT, 4 mM MgOAc, 0.1% Triton X-100, 1 mM ATP or ATPgS, 30 C; high-salt wash adds 300 mM NaCl; in-solution: …; scale: fold higher hMCM2-7 signal than without hORC6

| Substance | percent of particles in double-hexamer class averages [1] | binding signal [2] | binding signal [3] |
| --- | --- | --- | --- |
| budding yeast MCM2-7 complex, P29469 1-868; P24279 1-971; P30665 1-933; P29496 1-775; P53091 1-1017; P38132 1-845 | 91% | – | – |
| lamin B2 origin DNA for pre-RC / hOCCM (2 or 3 kbp) | – | 1.8 | 1.8 |
